Consider eight molecules from US12202905B2, “Methods and compositions relating to adenosine receptors” (Twist Bioscience Corporation, priority 2021, dated 2025).

Where a chain is given by its changes, count along the chain named. Names and notes keep the numbering of the source.

Assay [1] concerns human colon carcinoma (Colo205). Kind of assay: In vivo colon carcinoma model, tumor volume. As to conditions: mice with Colo205, tumor volume over 30 days. On the procedure:
Mice with human colon carcinoma (Colo205) were divided into 4 groups. Group 1 was the isotype control, Group 2 mice were treated with Anti-PD1, Group 3 mice were treated with variant A2A-77 and Group 4 mice were treated with variant A2A-81. Tumor volume is measured over 30 days. Results are depicted in FIGS. 34A-34D.
Additional studies were performed with mice treated with 10 mg/kg variant A2A-51 (Group 5), A2A-28 (Group 6), Ab7/PD1TAO15 (Group 7), and AZD4635 (Group 8). Mice were also treated with 20 mg/kg according to the schedule in FIG. 34E. Data is seen in FIGS. 34F-34K.

Assay [2] addresses T1, A2AR (Homo sapiens, UniProt P29274). Kind of assay: T cell activation assay (PBMCs, NECA, anti-CD3ε/CD28 beads, IFN-γ release). Format: cell-based. Details: endogenous in cells; host or cells: PBMCs. As to conditions: for T cell activation: NECA 1 μM, IFN-γ release. As to the method:
The cells were then activated by magnetic beads coating with anti-CD3ε/CD28 antibodies. Three days after incubation, the supernatant was collected for detecting IFN-γ release and evaluating T cell activation. ZM-241385 is potent and used as a selective small molecule A2A antagonist control.
A primary T-cell activation assay was performed as described above. Data is seen in FIG. 33D and Table 21.

For assay [3], the target named is T1, A2AR. The assay is described as follows: A2AR cell functional cAMP assays (allosteric and antagonistic). As to conditions: NECA titration, IgG titration (NECA 0.5 uM), IgG titration (NECA 10 uM). Background: Changes in cAMP serve as a functional read-out for many G protein-coupled receptors.
Description: Allosteric and Antagonistic cAMP Assays were Performed Using A2A Cell Lines
Assay [4] has as its target T2, A2b (Homo sapiens, UniProt P29275).
T2 construct: expressed in transfected cells; host or cells: CHO-K1
T2 sequence (P29275 1-332): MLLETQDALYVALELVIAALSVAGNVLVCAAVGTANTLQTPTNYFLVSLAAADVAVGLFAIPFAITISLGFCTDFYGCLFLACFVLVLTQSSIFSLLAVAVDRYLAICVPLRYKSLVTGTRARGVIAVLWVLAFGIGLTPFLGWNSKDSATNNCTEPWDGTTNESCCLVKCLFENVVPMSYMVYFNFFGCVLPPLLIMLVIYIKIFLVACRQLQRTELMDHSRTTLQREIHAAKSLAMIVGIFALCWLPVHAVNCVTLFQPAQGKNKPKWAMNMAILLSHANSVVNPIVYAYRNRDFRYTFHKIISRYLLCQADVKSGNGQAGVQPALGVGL
The assay is described as follows: A2b functional antagonistic cAMP assay (CHO-K1 cells). Format: cell-based. As to conditions: IgG 3× titration from 1000 nM, NECA 5 nM. On the procedure:
FIG. 46 depicts the functional cAMP assay performed on selected A2b antibodies. CHO-K1 cells were incubated with an A2b antibody. Next, the cells were stimulated using NECA. Activation of A2b was monitored based on 3′-5′-cyclic adenosine monophosphate (cAMP) production in the cell lines.
First, cells were pre-incubated with A2A-17, A2A-19, A2A-26, A2A-27, A2A-35, A2A-36, and A2A-83 at a 3× titration starting at 100 nM. […] The results are depicted in FIGS. 47B-47C.
An antagonistic cAMP assay at high levels of IgC and low ligand levels was performed. Cells were pre-incubated with A2A-17, A2A-19, A2A-26, A2A-27, A2A-35, A2A-36, A2A-83, and A2A-72 at a 3× titration starting at 1000 nM. […] The results are depicted in FIG. 47D. […] Properties of A2b are depicted in Table 23.

T1 sequence (P29274 whole entry): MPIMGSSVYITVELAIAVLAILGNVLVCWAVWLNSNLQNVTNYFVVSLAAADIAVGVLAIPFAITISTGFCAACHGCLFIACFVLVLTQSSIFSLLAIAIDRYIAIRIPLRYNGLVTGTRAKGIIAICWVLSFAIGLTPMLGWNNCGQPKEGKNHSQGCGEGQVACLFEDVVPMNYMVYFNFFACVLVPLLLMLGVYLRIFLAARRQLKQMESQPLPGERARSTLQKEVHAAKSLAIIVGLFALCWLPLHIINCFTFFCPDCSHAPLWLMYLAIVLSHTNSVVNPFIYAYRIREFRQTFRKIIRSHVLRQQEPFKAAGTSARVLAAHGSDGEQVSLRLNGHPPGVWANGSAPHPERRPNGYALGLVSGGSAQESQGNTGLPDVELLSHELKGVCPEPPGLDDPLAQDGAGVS

B1: A2A-51: A2AR variant; VH CDR1-3 SEQ ID NO 56/145/234 (antibody, V domains shown)
VH: EVQLVESGGGLVKPGGSLRLSCAASGYTFNDYYINWVRQAPGKGLEWVGDINPNNGANIYNDSVKGRFTISRDNSKNTLYLQMNSLRAEDTAVYYCARNYGSSYYALDYWGQGTLVTVSS
VL: DIQMTQSPSSLSASVGDRVTITCSASSSLSYMHWYQQKPGKAPKLLIYGASPRESGVPSRFSGSGSGTDFTLTISSLQPEDFATYYCRQMSSYPPTFGQGTKLEIK
In the case of B1, in assay [1], the “tumor size / tumor volume” value is on record as “ability to reduce tumor volume”. The “T cell activation” value in assay [2] is “T cell activation was observed”. Moreover, the “T cell activation with more (high) NECA” value in assay [2] (high NECA) is recorded as “still works well”.

B2: A2A-19: A2AR variant; VH CDR1-3 SEQ ID NO 24/113/202 (antibody, V domains shown)
VH: EVQLVESGGGLVKPGGSLRLSCAASGFTFSGYAMNWVRQAPGKGLEWVSTISGSGASTYYADSVKGRFTISRDNSKNTLYLQMNSLRAEDTAVYYCAAARGYKRWRLGRRYDYWGQGTLVTVSS
VL: DIQMTQSPSSLSASVGDRVTITCRASQSISDYLNWYQQKPGKAPKLLIYTASTLQSGVPSRFSGSGSGTDFTLTISSLQPEDFATYYCEQSYSTPWTFGGGTKLEIK
Consider B2, for which the “function in cAMP assays” value in assay [3] is on record as “improved function”.

B3: A2A-26: A2AR variant; VH CDR1-3 SEQ ID NO 31/120/209 (antibody, V domains shown)
VH: B2 VH with V5L, K13Q, G31T, N35G, T50G, G55A, A56G, Y102H, K103W
VL: B2 VL with S28T, D31R, T50S, E89Q, W96H, L104V
Turning to B3, in assay [3], the “function in cAMP assays” value is “improved function”.

B4: A2A-27: A2AR variant; VH CDR1-3 SEQ ID NO 32/121/210 (antibody, V domains shown)
VH: B2 VH with G31S, N35A, T50A, A56G, Y60F, K103W, G108W
VL: B2 VL with S30G, D31S, T50G, T53N, E89Q, S91G, T94A, W96R
As for B4, in assay [3], the “function in cAMP assays” value is “improved function”. The “A2a/A2b antagonist properties” value in assay [4] is “A2a antagonist that cross links with A2b, while also being an A2b antagonist”.

B5: A2A-53: A2AR variant; VH CDR1-3 SEQ ID NO 58/147/236 (antibody, V domains shown)
VH: EVQLVESGGGLVKPGGSLRLSCAASGFNIIDDYMHWVRQAPGKGLEWVGMITDTGEPTDADSVKGRFTISRDNSKNTLYLQMNSLRAEDTAVYYCVYDYIYAMDYWGQGTLVTVSS
VL: DIQMTQSPSSLSASVGDRVTITCKASQNMGSNVAWYQQKPGKAPKLLIYSASHRSSGVPSRFSGSGSGTDFTLTISSLQPEDFATYYCQQWNYPRITFGQGTKLEIK
B5: the “T cell activation” value in assay [2] is listed as “T cell activation was observed”.

B6: A2A-31: A2AR variant; VH CDR1-3 SEQ ID NO 36/125/214 (antibody, V domains shown)
VH: EVQLVESGGGLVKPGGSLRLSCAASGYLFTDYNMNWVRQAPGKGLEWVGWIYPGTGNTYNDSVKGRFTISRDNSKNTLYLQMNSLRAEDTAVYYCTALYYGSSWERYFDVWGQGTLVTVSS
VL: DIQMTQSPSSLSASVGDRVTITCRASQSISDYLNWYQQKPGKAPKLLIYGASPRESGVPSRFSGSGSGTDFTLTISSLQPEDFATYYCQQDNIWPYTFGQGTKLEIK
As for B6, the “T cell activation” value in assay [2] is recorded as “T cell activation was observed”.

B7: A2A-17: A2AR variant; VH CDR1-3 SEQ ID NO 22/111/200 (antibody, V domains shown)
VH: EVQLVESGGGLVKPGGSLRLSCAASGFNIGNTYMHWFRQAPGKGLEWVGVINPNYGTTRYNDSVKGRFTISRDNSKNTLYLQMNSLRAEDTAVYYCARDYGSSSFDYWGQGTLVTVSS
VL: DIQMTQSPSSLSASVGDRVTITCKASQSVRNDVVWYQQKPGKAPKLLIYRGNTLRPGVPSRFSGSGSGTDFTLTISSLQPEDFATYYCQQYYGIPLTFGQGTKLEIK
For B7, the “function in cAMP assays” value in assay [3] is reported as “improved function”.

B8: A2A-24: A2AR variant; VH CDR1-3 SEQ ID NO 29/118/207 (antibody, V domains shown)
VH: B7 VH
VL: B7 VL
Turning to B8, the “function in cAMP assays” value in assay [3] is “improved function”.
